*1 amine or outer side, *2 acyl side, *3 side chain or, on linkers, in order; H or OH if unused. Where no end group is shown, it is not given here. Side-chain parts run from the residue outwards. [ ]: non-standard residue; d: D form. The star is where a group is joined. C18 diacid = O=C(O)CCCCCCCCCCCCCCCCC(=O)*; γGlu = O=C(O)[C@H](CCC(=O)[*:2])N[*:1]; NMeI = CC[C@H](C)[C@H](NC)C(=O)O; Api = NC1(C(=O)O)CCNCC1; Abu = CC[C@H](N)C(=O)O; Aib = CC(C)(N)C(=O)O
T1: CRF1R receptor (UniProt P34998 24-415, limits assumed)
T1 sequence (looked up): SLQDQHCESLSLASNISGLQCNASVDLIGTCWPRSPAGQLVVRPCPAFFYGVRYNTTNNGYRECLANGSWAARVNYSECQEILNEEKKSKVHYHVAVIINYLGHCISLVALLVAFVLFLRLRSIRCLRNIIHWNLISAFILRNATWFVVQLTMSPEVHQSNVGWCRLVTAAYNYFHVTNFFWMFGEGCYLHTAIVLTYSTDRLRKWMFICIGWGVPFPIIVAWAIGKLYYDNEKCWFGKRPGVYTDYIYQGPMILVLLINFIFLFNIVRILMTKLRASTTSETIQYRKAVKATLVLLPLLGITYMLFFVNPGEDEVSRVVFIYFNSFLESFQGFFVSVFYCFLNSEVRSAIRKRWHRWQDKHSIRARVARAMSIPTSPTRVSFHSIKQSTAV


Key:
CRF1R receptor = target: T1, CRF1R receptor; experiment: cell-based or functional assay
[1] = target: human corticotropin-releasing factor 2a (CRF2a receptor) (human), Q13324; experiment: cell-based or functional assay
Chain of human corticotropin-releasing factor 2a (CRF2a receptor) (human), Q13324 (Q13324 20-411): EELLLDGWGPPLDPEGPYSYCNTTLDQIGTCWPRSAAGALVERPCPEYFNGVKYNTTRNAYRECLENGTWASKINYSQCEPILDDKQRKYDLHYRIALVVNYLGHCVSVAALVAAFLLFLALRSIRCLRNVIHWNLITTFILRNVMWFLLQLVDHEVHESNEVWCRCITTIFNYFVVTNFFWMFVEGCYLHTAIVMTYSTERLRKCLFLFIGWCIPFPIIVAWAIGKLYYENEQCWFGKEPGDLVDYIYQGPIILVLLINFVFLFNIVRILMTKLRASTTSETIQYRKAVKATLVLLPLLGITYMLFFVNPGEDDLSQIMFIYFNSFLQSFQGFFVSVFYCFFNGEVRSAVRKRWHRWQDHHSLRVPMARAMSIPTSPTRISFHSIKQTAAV

Emax (% I) (CRF1R receptor)	EC50 [nM] (cAMP) [1]	EC50 (CRF1R receptor)	Binder
9%	0.07 nM	–	[NMeI]VLSLD[dV]PIKLK([γGlu-C18 diacid])KILLEQEKQKKQREQAETN[Aib]QILAQV-NH2 (N-terminus assumed; SMILES CC[C@H](C)[C@H](NC)C(=O)N[C@H](C(=O)N[C@@H](CC(C)C)C(=O)N[C@@H](CO)C(=O)N[C@@H](CC(C)C)C(=O)N[C@@H](CC(=O)O)C(=O)N[C@@H](C(=O)N1CCC[C@H]1C(=O)N[C@H](C(=O)N[C@@H](CCCCN)C(=O)N[C@@H](CC(C)C)C(=O)N[C@@H](CCCCNC(=O)CC[C@H](NC(=O)CCCCCCCCCCCCCCCCC(=O)O)C(=O)O)C(=O)N[C@@H](CCCCN)C(=O)N[C@H](C(=O)N[C@@H](CC(C)C)C(=O)N[C@@H](CC(C)C)C(=O)N[C@@H](CCC(=O)O)C(=O)N[C@@H](CCC(N)=O)C(=O)N[C@@H](CCC(=O)O)C(=O)N[C@@H](CCCCN)C(=O)N[C@@H](CCC(N)=O)C(=O)N[C@@H](CCCCN)C(=O)N[C@@H](CCCCN)C(=O)N[C@@H](CCC(N)=O)C(=O)N[C@@H](CCCNC(=N)N)C(=O)N[C@@H](CCC(=O)O)C(=O)N[C@@H](CCC(N)=O)C(=O)N[C@@H](C)C(=O)N[C@@H](CCC(=O)O)C(=O)N[C@H](C(=O)N[C@@H](CC(N)=O)C(=O)NC(C)(C)C(=O)N[C@@H](CCC(N)=O)C(=O)N[C@H](C(=O)N[C@@H](CC(C)C)C(=O)N[C@@H](C)C(=O)N[C@@H](CCC(N)=O)C(=O)N[C@H](C(N)=O)C(C)C)[C@@H](C)CC)[C@@H](C)O)[C@@H](C)CC)[C@@H](C)CC)C(C)C)C(C)C) [SEQ ID NO 137]
39%	0.14 nM	236 nM	Ac-IVLSLD[dV]PIKLK([γGlu-C18 diacid])KILLEQEKQKKQREQAETN[Api]QILAQV-NH2 (SMILES CC[C@H](C)[C@H](NC(C)=O)C(=O)N[C@H](C(=O)N[C@@H](CC(C)C)C(=O)N[C@@H](CO)C(=O)N[C@@H](CC(C)C)C(=O)N[C@@H](CC(=O)O)C(=O)N[C@@H](C(=O)N1CCC[C@H]1C(=O)N[C@H](C(=O)N[C@@H](CCCCN)C(=O)N[C@@H](CC(C)C)C(=O)N[C@@H](CCCCNC(=O)CC[C@H](NC(=O)CCCCCCCCCCCCCCCCC(=O)O)C(=O)O)C(=O)N[C@@H](CCCCN)C(=O)N[C@H](C(=O)N[C@@H](CC(C)C)C(=O)N[C@@H](CC(C)C)C(=O)N[C@@H](CCC(=O)O)C(=O)N[C@@H](CCC(N)=O)C(=O)N[C@@H](CCC(=O)O)C(=O)N[C@@H](CCCCN)C(=O)N[C@@H](CCC(N)=O)C(=O)N[C@@H](CCCCN)C(=O)N[C@@H](CCCCN)C(=O)N[C@@H](CCC(N)=O)C(=O)N[C@@H](CCCNC(=N)N)C(=O)N[C@@H](CCC(=O)O)C(=O)N[C@@H](CCC(N)=O)C(=O)N[C@@H](C)C(=O)N[C@@H](CCC(=O)O)C(=O)N[C@H](C(=O)N[C@@H](CC(N)=O)C(=O)NC1(C(=O)N[C@@H](CCC(N)=O)C(=O)N[C@H](C(=O)N[C@@H](CC(C)C)C(=O)N[C@@H](C)C(=O)N[C@@H](CCC(N)=O)C(=O)N[C@H](C(N)=O)C(C)C)[C@@H](C)CC)CCNCC1)[C@@H](C)O)[C@@H](C)CC)[C@@H](C)CC)C(C)C)C(C)C) [SEQ ID NO 129]
11%	0.08 nM	–	Ac-IVLSLD[dV]PIKLK([γGlu-C18 diacid])KILLEQEKQKKQREQAETN[Abu]QILAQV-NH2 (SMILES CC[C@H](NC(=O)[C@H](CC(N)=O)NC(=O)[C@@H](NC(=O)[C@H](CCC(=O)O)NC(=O)[C@H](C)NC(=O)[C@H](CCC(N)=O)NC(=O)[C@H](CCC(=O)O)NC(=O)[C@H](CCCNC(=N)N)NC(=O)[C@H](CCC(N)=O)NC(=O)[C@H](CCCCN)NC(=O)[C@H](CCCCN)NC(=O)[C@H](CCC(N)=O)NC(=O)[C@H](CCCCN)NC(=O)[C@H](CCC(=O)O)NC(=O)[C@H](CCC(N)=O)NC(=O)[C@H](CCC(=O)O)NC(=O)[C@H](CC(C)C)NC(=O)[C@H](CC(C)C)NC(=O)[C@@H](NC(=O)[C@H](CCCCN)NC(=O)[C@H](CCCCNC(=O)CC[C@H](NC(=O)CCCCCCCCCCCCCCCCC(=O)O)C(=O)O)NC(=O)[C@H](CC(C)C)NC(=O)[C@H](CCCCN)NC(=O)[C@@H](NC(=O)[C@@H]1CCCN1C(=O)[C@H](NC(=O)[C@H](CC(=O)O)NC(=O)[C@H](CC(C)C)NC(=O)[C@H](CO)NC(=O)[C@H](CC(C)C)NC(=O)[C@@H](NC(=O)[C@@H](NC(C)=O)[C@@H](C)CC)C(C)C)C(C)C)[C@@H](C)CC)[C@@H](C)CC)[C@@H](C)O)C(=O)N[C@@H](CCC(N)=O)C(=O)N[C@H](C(=O)N[C@@H](CC(C)C)C(=O)N[C@@H](C)C(=O)N[C@@H](CCC(N)=O)C(=O)N[C@H](C(N)=O)C(C)C)[C@@H](C)CC) [SEQ ID NO 127]
20%	0.05 nM	–	Ac-IVLSLD[dV]PIKLK([γGlu-C18 diacid])KILLEQEKQKKQREQAETNAQILAQV-NH2 (SMILES CC[C@H](C)[C@H](NC(C)=O)C(=O)N[C@H](C(=O)N[C@@H](CC(C)C)C(=O)N[C@@H](CO)C(=O)N[C@@H](CC(C)C)C(=O)N[C@@H](CC(=O)O)C(=O)N[C@@H](C(=O)N1CCC[C@H]1C(=O)N[C@H](C(=O)N[C@@H](CCCCN)C(=O)N[C@@H](CC(C)C)C(=O)N[C@@H](CCCCNC(=O)CC[C@H](NC(=O)CCCCCCCCCCCCCCCCC(=O)O)C(=O)O)C(=O)N[C@@H](CCCCN)C(=O)N[C@H](C(=O)N[C@@H](CC(C)C)C(=O)N[C@@H](CC(C)C)C(=O)N[C@@H](CCC(=O)O)C(=O)N[C@@H](CCC(N)=O)C(=O)N[C@@H](CCC(=O)O)C(=O)N[C@@H](CCCCN)C(=O)N[C@@H](CCC(N)=O)C(=O)N[C@@H](CCCCN)C(=O)N[C@@H](CCCCN)C(=O)N[C@@H](CCC(N)=O)C(=O)N[C@@H](CCCNC(=N)N)C(=O)N[C@@H](CCC(=O)O)C(=O)N[C@@H](CCC(N)=O)C(=O)N[C@@H](C)C(=O)N[C@@H](CCC(=O)O)C(=O)N[C@H](C(=O)N[C@@H](CC(N)=O)C(=O)N[C@@H](C)C(=O)N[C@@H](CCC(N)=O)C(=O)N[C@H](C(=O)N[C@@H](CC(C)C)C(=O)N[C@@H](C)C(=O)N[C@@H](CCC(N)=O)C(=O)N[C@H](C(N)=O)C(C)C)[C@@H](C)CC)[C@@H](C)O)[C@@H](C)CC)[C@@H](C)CC)C(C)C)C(C)C) [SEQ ID NO 126]

— patent US20260001928A1 (CORTERIA PHARMACEUTICALS, priority 2022, published 2026)
